Results taken from patent US9382311.

Target: T1, YU2 gp120 (HIV-1, UniProt P35961 32-498)
T1 construct: domain: gp120
Assay: ELISA (FIG. 3)

B1: VRC-PG-04 (antibody, V domains shown)
VH: QVQLVQSGSGVKKPGASVRVSCWTSEDIFERTELIHWVRQAPGQGLEWIGWVKTVTGAVNFGSPDFRQRVSLTRDRDLFTAHMDIRGLTQGDTATYFCARQKFYTGGQGWYFDLWGRGTLIVVSS
VL: EIVLTQSPGTLSLSPGETASLSCTAASYGHMTWYQKKPGQPPKLLIFATSKRASGIPDRFSGSQFGKQYTLTITRMEPEDFARYYCQQLEFFGQGTRLEIR
notes: also called PGV04
Question: Does B1 bind?
Answer: binds
